Source: the supplement of paper PMC9732359
± gives the uncertainty stated by the source.

Test: protein stability index of a GFP-peptide fusion (yeast GPS) (PSI 1-4); higher = more stable; sorted into four equal gates, so the index is relative within each strain
How it was run: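 Tiled yeast protein peptides of 17 residues were each joined downstream of GFP, on plasmids that also express Cherry. The pooled library was maintained in yeast, and mid-log cultures in leucine-free medium were sorted into four equal gates on the GFP/Cherry ratio. Plasmids from every gate were amplified by PCR and sequenced on Illumina, with barcodes linking reads to strains. The protein stability index of a peptide is its gate-number-weighted read frequency summed over the gates.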

RFKSQFLYVLIPAGIYW [QCR8]
protein stability index (doa10∆): 1.75 ± 0.14
protein stability index (pdr5∆): 2.15 ± 0.069
protein stability index (san1∆): 2.07 ± 0.12
protein stability index (ubr1∆): 2.37 ± 0.092

AKLLQENDTTLVKTKEL [FAS1]
protein stability index (doa10∆): 2.66 ± 0.14
protein stability index (pdr5∆): 2.08 ± 0.27

SDTSKPAFTFGAQKDNE [YJL041W/NSP1]
protein stability index (doa10∆): 3.32 ± 0.094
protein stability index (pdr5∆): 3.32 ± 0.087
protein stability index (san1∆): 3.36 ± 0.074
protein stability index (ubr1∆): 3.48 ± 0.059

YPDLKAFHNNLKFLYLL [MED1]
protein stability index (doa10∆): 2.06 ± 0.059
protein stability index (pdr5∆): 2.04 ± 0.05
protein stability index (san1∆): 1.83 ± 0.074
protein stability index (ubr1∆): 1.93 ± 0.037

ILDNTENYDDTELRQLF [DSN1]
protein stability index (doa10∆): 3.15 ± 0.066
protein stability index (pdr5∆): 3.28 ± 0.068
protein stability index (san1∆): 3.37 ± 0.042
protein stability index (ubr1∆): 3.29 ± 0.05

NDHSKSANPKKTTITRV [SWI3]
protein stability index (doa10∆): 2.9 ± 0.11
protein stability index (pdr5∆): 3.09 ± 0.092
protein stability index (san1∆): 3.14 ± 0.08
protein stability index (ubr1∆): 2.97 ± 0.051

SVLHSWVQLVQIIVTDG [YJL039C/NUP192]
protein stability index (doa10∆): 1.58 ± 0.049
protein stability index (pdr5∆): 1.98 ± 0.056
protein stability index (san1∆): 1.28 ± 0.085
protein stability index (ubr1∆): 1.54 ± 0.055

VEVKDASLVDYVQVRQP [RPS5]
protein stability index (doa10∆): 2.9 ± 0.3
protein stability index (pdr5∆): 3.41 ± 0.17
protein stability index (ubr1∆): 1.18 ± 0.067

YVNVAISIYNMLPPKSV [SSN2]
protein stability index (doa10∆): 1.71 ± 0.049
protein stability index (pdr5∆): 1.82 ± 0.043
protein stability index (san1∆): 2.01 ± 0.062
protein stability index (ubr1∆): 2.12 ± 0.029

ARGLTATGKKSRGINKG [RPL15A]
protein stability index (doa10∆): 3.57 ± 0.19
protein stability index (pdr5∆): 3.37 ± 0.15
protein stability index (san1∆): 3.3 ± 0.071
protein stability index (ubr1∆): 3.16 ± 0.068

IGAAELNENARELEQIK [SNF12]
protein stability index (doa10∆): 3.18 ± 0.081
protein stability index (pdr5∆): 3.18 ± 0.067
protein stability index (san1∆): 2.84 ± 0.12
protein stability index (ubr1∆): 3.33 ± 0.05

DLKFKRHKNKHIQGFPT [DSN1]
protein stability index (doa10∆): 3.15 ± 0.13
protein stability index (pdr5∆): 3.38 ± 0.28
protein stability index (san1∆): 1.75 ± 0.12
protein stability index (ubr1∆): 2.98 ± 0.12

YGIVAMAATATDKIGRS [FAS2]
protein stability index (doa10∆): 1.64 ± 0.063
protein stability index (pdr5∆): 1.82 ± 0.06
protein stability index (san1∆): 1.65 ± 0.092
protein stability index (ubr1∆): 2.26 ± 0.051

SSFEENNDLESVSMLLQ [RRI2]
protein stability index (doa10∆): 2.98 ± 0.071
protein stability index (pdr5∆): 3.23 ± 0.063
protein stability index (san1∆): 3 ± 0.048
protein stability index (ubr1∆): 3.13 ± 0.039

ADAVTKDLKLRREDEII [REC8]
protein stability index (doa10∆): 3.08 ± 0.11
protein stability index (pdr5∆): 3.31 ± 0.1
protein stability index (san1∆): 3.3 ± 0.065
protein stability index (ubr1∆): 3.03 ± 0.062

KTASLGNSKDDLLDMIQ [ISW2]
protein stability index (doa10∆): 1.62 ± 0.066
protein stability index (pdr5∆): 2.22 ± 0.13
protein stability index (san1∆): 3.36 ± 0.059
protein stability index (ubr1∆): 1.94 ± 0.059

QWSMVAQRLQISDYQQL [SWI1]
protein stability index (doa10∆): 1.53 ± 0.057
protein stability index (pdr5∆): 1.65 ± 0.054
protein stability index (san1∆): 1.59 ± 0.12
protein stability index (ubr1∆): 1.41 ± 0.054

LLPQWDDDQIESLKKSP [ARP9]
protein stability index (doa10∆): 3.17 ± 0.085
protein stability index (pdr5∆): 3.15 ± 0.061
protein stability index (san1∆): 3.1 ± 0.051
protein stability index (ubr1∆): 3.12 ± 0.052

YSIPHPSENLLNIRIQT [RPC19]
protein stability index (doa10∆): 2.1 ± 0.098
protein stability index (pdr5∆): 2.21 ± 0.078
protein stability index (san1∆): 2.65 ± 0.12
protein stability index (ubr1∆): 2.38 ± 0.11

ELLKSSLQKAGSKMEAK [AAR2]
protein stability index (doa10∆): 3.23 ± 0.077
protein stability index (pdr5∆): 3.35 ± 0.085
protein stability index (san1∆): 3.05 ± 0.079
protein stability index (ubr1∆): 3.07 ± 0.079

AMSTVTLGVVGKSEKLS [SKI6]
protein stability index (doa10∆): 2.81 ± 0.079
protein stability index (pdr5∆): 3.19 ± 0.081
protein stability index (san1∆): 2.75 ± 0.099
protein stability index (ubr1∆): 2.93 ± 0.073

IEEEIFDDSSRIVNHKT [LIN1]
protein stability index (doa10∆): 3.14 ± 0.083
protein stability index (pdr5∆): 2.91 ± 0.1
protein stability index (san1∆): 3.11 ± 0.072
protein stability index (ubr1∆): 2.97 ± 0.071

NNYPNVELTYSLNNSDS [BRR2]
protein stability index (doa10∆): 2.99 ± 0.14
protein stability index (pdr5∆): 2.42 ± 0.18

EAFNDGNENFEDFDVEH [RPO26]
protein stability index (doa10∆): 2.97 ± 0.079
protein stability index (pdr5∆): 3.15 ± 0.086
protein stability index (san1∆): 2.92 ± 0.085
protein stability index (ubr1∆): 3.21 ± 0.079

QTLLQRSEDPAGLGKTN [YGR119C/NUP57]
protein stability index (doa10∆): 3.31 ± 0.084
protein stability index (pdr5∆): 3.12 ± 0.11
protein stability index (san1∆): 3.27 ± 0.078
protein stability index (ubr1∆): 3.39 ± 0.091

VTAEDFKQAKERVMKNK [RPT2]
protein stability index (doa10∆): 3.69 ± 0.23
protein stability index (pdr5∆): 3.52 ± 0.12
protein stability index (san1∆): 3.52 ± 0.11
protein stability index (ubr1∆): 3.42 ± 0.11

EKFSSFIESIVVDFKNK [SNF12]
protein stability index (doa10∆): 2.69 ± 0.065
protein stability index (pdr5∆): 2.84 ± 0.078
protein stability index (san1∆): 2.74 ± 0.081
protein stability index (ubr1∆): 2.77 ± 0.061

ANDFQLTIVTCKQFPKL [SRB8]
protein stability index (doa10∆): 1.83 ± 0.047
protein stability index (pdr5∆): 1.96 ± 0.041
protein stability index (san1∆): 1.82 ± 0.073
protein stability index (ubr1∆): 1.82 ± 0.034

ISVTDTEVERAKSLLKL [COR1]
protein stability index (doa10∆): 3.3 ± 0.1
protein stability index (pdr5∆): 3.26 ± 0.084
protein stability index (san1∆): 3.08 ± 0.053
protein stability index (ubr1∆): 3.24 ± 0.084

DRVVSSDSLDIAQGIDL [SRP72]
protein stability index (doa10∆): 2.85 ± 0.069
protein stability index (pdr5∆): 2.6 ± 0.062
protein stability index (san1∆): 2.27 ± 0.079
protein stability index (ubr1∆): 3 ± 0.079

LHCCIQLLMGDIPELSF [RPN3]
protein stability index (doa10∆): 1.71 ± 0.048
protein stability index (pdr5∆): 1.73 ± 0.052
protein stability index (san1∆): 1.78 ± 0.065
protein stability index (ubr1∆): 1.71 ± 0.042

IETIGHLITKEEIMHGL [RPN5]
protein stability index (doa10∆): 2.82 ± 0.089
protein stability index (pdr5∆): 3.31 ± 0.14
protein stability index (san1∆): 3.13 ± 0.079
protein stability index (ubr1∆): 2.97 ± 0.067

ETYGSMEMSEKIQFILE [RPN5]
protein stability index (doa10∆): 2.41 ± 0.12
protein stability index (pdr5∆): 2.94 ± 0.082
protein stability index (san1∆): 2.53 ± 0.079
protein stability index (ubr1∆): 2.77 ± 0.079

WALKSSLNSMTNAKLPN [RGR1]
protein stability index (doa10∆): 2.74 ± 0.092
protein stability index (pdr5∆): 2.77 ± 0.13
protein stability index (san1∆): 3.17 ± 0.052
protein stability index (ubr1∆): 2.39 ± 0.05

LPKYQTIQYDPPETKLP [SNF5]
protein stability index (doa10∆): 3.03 ± 0.052
protein stability index (pdr5∆): 2.96 ± 0.046
protein stability index (san1∆): 2.92 ± 0.04
protein stability index (ubr1∆): 3.01 ± 0.039

KRLNGKRKYLDIPIDEM [SSN2]
protein stability index (doa10∆): 3.19 ± 0.13
protein stability index (pdr5∆): 2.97 ± 0.14
protein stability index (san1∆): 3.23 ± 0.078
protein stability index (ubr1∆): 3.14 ± 0.17

GAAFKVISNLVPKLESS [YJL039C/NUP192]
protein stability index (doa10∆): 2.86 ± 0.16
protein stability index (pdr5∆): 2.59 ± 0.11
protein stability index (san1∆): 2.58 ± 0.24
protein stability index (ubr1∆): 2.18 ± 0.12

KIRRAARDLLTRDEKDP [RPS9A]
protein stability index (doa10∆): 2.33 ± 0.08
protein stability index (pdr5∆): 2.49 ± 0.065
protein stability index (san1∆): 2.3 ± 0.093
protein stability index (ubr1∆): 2.58 ± 0.078

AIGCIERSDLLPYLSDT [YJR042W/NUP85]
protein stability index (doa10∆): 2.96 ± 0.095
protein stability index (pdr5∆): 2.96 ± 0.098
protein stability index (san1∆): 2.8 ± 0.075
protein stability index (ubr1∆): 3.06 ± 0.13

LSTTPTKSNRRVSHSDT [SIR4]
protein stability index (pdr5∆): 3.06 ± 0.26
protein stability index (san1∆): 3.33 ± 0.088
protein stability index (ubr1∆): 3.25 ± 0.2

LASIPDIFITPTPVVTI [SSN2]
protein stability index (doa10∆): 1.71 ± 0.054
protein stability index (pdr5∆): 1.65 ± 0.054
protein stability index (san1∆): 1.45 ± 0.098
protein stability index (ubr1∆): 1.63 ± 0.044

HGVSFKKRAPRAVKEIK [RPL31A]
protein stability index (pdr5∆): 2.73 ± 0.14
protein stability index (san1∆): 2.97 ± 0.17
protein stability index (ubr1∆): 3.2 ± 0.11

TKFSNPAIPPVIDLEKI [BRR2]
protein stability index (doa10∆): 2.57 ± 0.068
protein stability index (pdr5∆): 2.75 ± 0.068
protein stability index (san1∆): 2.66 ± 0.063
protein stability index (ubr1∆): 2.65 ± 0.052

VPRLFDLVKPKNPKFSN [SMC4]
protein stability index (doa10∆): 2.54 ± 0.052
protein stability index (pdr5∆): 2.62 ± 0.061
protein stability index (san1∆): 2.45 ± 0.091
protein stability index (ubr1∆): 2.81 ± 0.052

RSLRATAEERVGRRAAN [RPL15A]
protein stability index (doa10∆): 3.56 ± 0.24
protein stability index (pdr5∆): 3.52 ± 0.19
protein stability index (san1∆): 3.03 ± 0.2
protein stability index (ubr1∆): 2.95 ± 0.1

FTNELKAELDRYKRENQ [SEM1]
protein stability index (doa10∆): 3.09 ± 0.16
protein stability index (pdr5∆): 3.38 ± 0.14
protein stability index (san1∆): 2.98 ± 0.11
protein stability index (ubr1∆): 3.41 ± 0.24

TSLLDSLISVLEASLNS [YJL039C/NUP192]
protein stability index (doa10∆): 1.94 ± 0.083
protein stability index (pdr5∆): 1.77 ± 0.09
protein stability index (san1∆): 1.87 ± 0.19
protein stability index (ubr1∆): 1.58 ± 0.08

DVLTLENIQEGTSLTIQ [CDC53]
protein stability index (doa10∆): 3.17 ± 0.1
protein stability index (pdr5∆): 3.22 ± 0.14
protein stability index (san1∆): 3.1 ± 0.056
protein stability index (ubr1∆): 3.14 ± 0.054

YPNSSKLKRNSDRREHD [LIN1]
protein stability index (doa10∆): 3.25 ± 0.083
protein stability index (pdr5∆): 3.1 ± 0.067
protein stability index (san1∆): 3.02 ± 0.045
protein stability index (ubr1∆): 3.03 ± 0.075

QLDDEDFDLLNKTLTFE [FAS1]
protein stability index (doa10∆): 3.38 ± 0.12
protein stability index (pdr5∆): 3.58 ± 0.098
protein stability index (san1∆): 3.36 ± 0.069
protein stability index (ubr1∆): 3.16 ± 0.085

VKMLRDNPGYKASKEIK [SIR3]
protein stability index (doa10∆): 3.08 ± 0.17
protein stability index (pdr5∆): 3.38 ± 0.19
protein stability index (ubr1∆): 3.15 ± 0.11

SEIARTYLLKNDLVKAR [RPN9]
protein stability index (doa10∆): 3.29 ± 0.2
protein stability index (san1∆): 3.09 ± 0.12

DWNKRFSHLAGGKIINK [BRR2]
protein stability index (doa10∆): 2.84 ± 0.075
protein stability index (pdr5∆): 3.33 ± 0.14
protein stability index (san1∆): 3.12 ± 0.2
protein stability index (ubr1∆): 3 ± 0.089
